Target: efna1_mouse Efna1 (UniProt P52793)
Sequence (P52793 whole entry): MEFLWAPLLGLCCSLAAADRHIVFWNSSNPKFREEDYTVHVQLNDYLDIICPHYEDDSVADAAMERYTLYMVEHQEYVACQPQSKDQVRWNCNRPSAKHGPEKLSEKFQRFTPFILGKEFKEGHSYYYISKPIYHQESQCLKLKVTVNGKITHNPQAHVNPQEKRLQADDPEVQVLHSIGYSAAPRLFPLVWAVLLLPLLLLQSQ

Substance: Ephrin type-A receptor 7 (Homo sapiens), Q15375 T105Q
- effect of a mutation on the interaction: decreasing interaction
